Measurements published in patent publication US20250066490A1, “ANTI-CD70 ANTIBODIES, CONJUGATES THEREOF AND METHODS OF USING THE SAME” (ProfoundBio US Co., priority 2021, published 2025).
Read-outs that look alike come from different tables or passages of the source.

What was measured:
[1] = target: T1, human CD70 extra-cellular domain (ECD) (Homo sapiens, UniProt P32970); experiment: Biolayer interferometry (BLI), human CD70; type: binding
T1 construct: human, rat, or mouse CD70 extra-cellular domain (ECD) linked to His tag; His tag; purchased ACRO systems
T1 sequence (P32970 39-193 limits assumed): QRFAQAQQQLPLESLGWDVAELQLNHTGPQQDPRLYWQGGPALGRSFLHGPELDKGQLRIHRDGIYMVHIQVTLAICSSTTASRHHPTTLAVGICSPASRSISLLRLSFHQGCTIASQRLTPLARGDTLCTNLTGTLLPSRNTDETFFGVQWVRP
Procedure: (§1) Recombinant proteins consisting of human, rat, or mouse CD70 extra-cellular domain (ECD) linked to His tag was purchased (from ACRO systems). 69A7 and 2E7 (20 nM) were immobilized on anti-human IgG Fc biosensor tips (ForteBio). Binding assays using one concentration (100 nM) of recombinant protein in solution were performed using Octet RED (ForteBio). Association time was set at 180s and dissociation time was set at 300s. Binding affinity was calculated using ForteBio Data Acquisition 6.3 software. Affinity was derived by fitting the kinetic data to a 1:1 Langmuir binding model utilizing global fitting algorithms. […] Binding assays for 2E7 using multiple dilutions (from 200 nM down to 3.13 nM) of species' recombinant CD70 ECD proteins in solution were also performed using the same method.

[2] = tested on: 786-O, Caki-1, U251 and DBTRG-05MG cells; experiment: Antibody binding by flow cytometry, statements across all four tumor cell lines; parameters: species or system human; settings: range over the four cell lines
Procedure: The lead antibodies were tested for binding to renal carcinoma cells and glioblastoma cells expressing CD70 on the cell surface by flow cytometry. Cell lines 786-O (ATCC® CRL-1932™, provided by COBIOER), Caki-1 (ATCC® HTB-46™, provided by COBIOER), U251 and DBTRG-05MG (ATCC® CRL-2020™, provided by COBIOER) were each tested for antibody binding. 786-O cells were cultured with RPMI 1640 medium (Gibco, Cat #11875093) containing of 10% FBS (Gibco, Cat #10099141) while Caki-1 cells were cultured with McCoy's 5a Modified medium (Gibco, Cat #16600082) containing 10% FBS. U251 cells were cultured with MEM medium containing of 10% FBS and 1% NEAA+1 mM sodium pyruvate. DBTRG-05MG cells were cultured with DMEM medium (Gibco, Cat #C11995500BT) containing of 10% FBS. Each of the lead antibodies and the controls were incubated for 30 mins with the different cell lines (3×10^5 cells per well) in 0.2 ml FACS buffer (1×PBS with 0.1% BSA) at 4° C. Then, the cells were pelleted, washed, and incubated at 4° C. for 30 mins with 100 μl of 1:200 diluted PE-conjugated anti human Fc (Abcam, Ab98596) in FACS buffer. The cells were pelleted again, washed with PBS, resuspended in FACS buffer and analyzed by flow cytometer (Beckman, CytoFLEX).

CD70 ECD = target: T2, CD70 ECD (Homo sapiens, UniProt P32970); experiment: Biacore affinity measurement on immobilized CD70 ECD; type: binding
T2 sequence (P32970 39-193 limits assumed): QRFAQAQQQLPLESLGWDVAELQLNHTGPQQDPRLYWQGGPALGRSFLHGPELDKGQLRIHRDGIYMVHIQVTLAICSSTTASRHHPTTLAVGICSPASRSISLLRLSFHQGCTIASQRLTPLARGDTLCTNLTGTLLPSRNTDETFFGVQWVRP
Procedure: The immobilization of antigen CD70 ECD was performed at 25° C. with HBS-EP as the running buffer. Sensor chip surface of flow cells 1, 4 were activated by freshly mixed 50 mmol/L N-Hydroxy succinimide (NHS) and 200 mmol/L 1-ethyl-3-(3-dimethylaminopropyl) carbodiimide hydrochloride (EDC) for 420s (10 μL/min). Afterwards, CD70 antigen diluted in 10 mmol/L NaAC (pH 4.5) was injected into flow cell 4 to achieve conjugation of the appropriate Response Unit, while flow cell 1 was set as a blank. After the amine coupling reaction, the remaining active coupling sites on chip surface were blocked by 420s injection of 1 mol/L ethanolamine hydrochloride.
The assay was performed at 25° C. and the running buffer was HBS-EP. Diluted antibodies were injected over the surface of flow cells 1 and 4 during the association phase, followed by injecting running buffer as the dissociation phase. All the data were processed using Biacore T200 Evaluation software version 3.1. Flow cell 1 and a blank injection of buffer in each cycle were used as a double reference for Response Units subtraction. Kinetic data of the interaction between the antibodies and CD70 antigen were obtained through affinity measurement.

cyno CD70 ECD = experiment: Biolayer interferometry (BLI), cyno CD70; type: binding
[3] = tested on: CD70-negative cell line, MCF-7; experiment: 2E7 binding by flow cytometry, MCF-7; settings: FIG. 12
Procedure: Binding activity of 2E7 or the isotype control with a target cell line (Raji) or a cell line (MCF-7) that has negligible level of CD70 expression were evaluated by flow cytometry (Beckman, Cytoflex). 3×10^5 cells per well were seeded on a 96-well V-bottomed plate and incubated with 100 μl of 2E7 in serial dilutions. After 30 min incubation at 4° C., cells were washed twice with PBS, stained with 100 μl of 1:200 diluted PE-conjugated anti-human Fc in FACS buffer (1×PBS containing 1% BSA), then incubated at 4° C. for 30 min. Cells were finally washed two times with PBS and analyzed by flow cytometric analysis.

[4] = target: T3, mouse CD70 extra-cellular domain (ECD) (Mus musculus, UniProt O55237); experiment: Biolayer interferometry (BLI), mouse CD70; type: binding; settings: for Response: *Response below range of quantification
T3 construct: human, rat, or mouse CD70 extra-cellular domain (ECD) linked to His tag; His tag; purchased ACRO systems
T3 sequence (O55237 45-195): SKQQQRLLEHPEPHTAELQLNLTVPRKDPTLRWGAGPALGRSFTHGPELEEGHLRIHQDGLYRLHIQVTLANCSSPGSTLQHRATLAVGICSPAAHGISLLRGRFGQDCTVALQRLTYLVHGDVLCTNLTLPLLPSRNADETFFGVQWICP
Procedure: as §1

[5] = Hu CD70 100 nM, one concentration

Response ([1]; HU CD70 3.13 nM): 0.1732 | Response ([1]; HU CD70 6.25 nM): 0.2136 | Response ([1]; HU CD70 12.5 nM): 0.3519 | Response ([1]; HU CD70 25 nM): 0.5319 | Response ([1]; HU CD70 50 nM): 0.6227 | Response ([1]; HU CD70 100 nM, dilution series): 0.7695 | Response ([1]; HU CD70 200 nM): 0.825 | ka ([1]; HU CD70, multiple dilutions 200-3.13 nM, global fit): 314300 M⁻¹ s⁻¹ | Response [1, 5]: 0.5157 | ka [1, 5]: 365000 M⁻¹ s⁻¹ | Kd ([1]; human CD70, multiple dilutions (200 nM down to 3.13 nM), read-out: KD): 0.81 nM | Kd ([1]; human CD70, one concentration (100 nM), read-out: equilibrium dissociation constant (KD)): 0.97 nM | EC50 relative to that of antibody 69A7 [2]: 1.8˜3.5 times | affinity to CD70 antigen, fold greater than the reference antibody h1F6 (CD70 ECD): 2-3 fold | Rmax (RU) (CD70 ECD; 25° C., CD70 immobilized): 32.94 RU | ka (CD70 ECD; 25° C., CD70 immobilized): 75400 M⁻¹ s⁻¹ | kd (CD70 ECD; 25° C., CD70 immobilized): 0.00106 s⁻¹ | Response ([4]; MOUSE CD70 3.13 nM): *−6.014E−03 | Response ([4]; MOUSE CD70 6.25 nM): *−5.879E−03 | Response ([4]; MOUSE CD70 12.5 nM): *−1.516E−03 | Response ([4]; MOUSE CD70 25 nM): *−3.009E−03 | Response ([4]; MOUSE CD70 50 nM): *0.0063 | Response ([4]; MOUSE CD70 100 nM, dilution series): *0.0111 | Response ([4]; MOUSE CD70 200 nM): *0.0012 | ka ([4]; MOUSE CD70, multiple dilutions 200-3.13 nM, global fit, responses below range of quantification): 117000 M⁻¹ s⁻¹ | Response ([4]; MS CD70 100 nM, one concentration): *0.0045 | ka ([4]; MS CD70 100 nM, one concentration, response below range of quantification): 3250 M⁻¹ s⁻¹ | cross-reactivity to mouse CD70 ([4]; multiple dilutions, Table 10): no cross-reactivity | cross-reactivity to mouse CD70 ([4]; one concentration (100 nM), Table 9): no cross-reactivity
B1: 2E7: anti-CD70 antibody clone, VH SEQ 7 and VL SEQ 8; tested as scFv and full human IgG1/kappa (antibody, V domains shown)
VH: QVQLQESGPGLVKPSETLSLTCTVSGGSVSSDYYYWSWIRQPPGKGLEWLGYIYYSGSTNYNPSLKSRVTISVDTSKNQFSLKLRSVTTADTAVYYCARGDGDFLGVCFDYWGQGTLVTVSS
VL: EIVLTQSPATLSLSPGERATLSCRASQSVSSYLAWYQQKPGQAPRLLIFDASNRATGIPARFSGSGSGTDFTLTISSLEPEDFAVYYCQQRSNWPLTFGGGTKVEIK
modifications: Synthetic 2E7 VH amino acid sequence; Synthetic 2E7 VL amino acid sequence
notes: tested as scFv and full human IgG1/kappa
Response (cyno CD70 ECD; CYNO CD70 3.13 nM): 0.1275 | Response (cyno CD70 ECD; CYNO CD70 6.25 nM): 0.204 | Response (cyno CD70 ECD; CYNO CD70 12.5 nM): 0.2927 | Response (cyno CD70 ECD; CYNO CD70 25 nM): 0.3702 | Response (cyno CD70 ECD; CYNO CD70 50 nM): 0.4136 | Response (cyno CD70 ECD; CYNO CD70 100 nM): 0.4825 | Response (cyno CD70 ECD; CYNO CD70 200 nM): 0.4991 | ka (cyno CD70 ECD; CYNO CD70, multiple dilutions 200-3.13 nM, global fit): 617800 M⁻¹ s⁻¹ | binding to MCF-7 [3]: no binding
